{"source": "patent US20240293316", "proteins": {"B1": {"name": "thermolysin (protein)", "chain": "ITGTSTVGVGRGVLGDQKNINTTYSTYYYLQDNTRGNGIFTYDAKYRTTLPGSLWADADNQFFASYDAPAVDAHYYAGVTYDYYKNVHNRLSYDGNNAAIRSSVHYSQGYNNAFWNGSQMVYGDGDGQTFIPLSGGIDVVAHELTHAVTDYTAGLIYQNESGAINEAISDIFGTLVEFYANKNPDWEIGEDVYTPGISGDSLRSMSDPAKYGDPDHYSKRYTGTQDNGGVHINSGIINKAAYLISQGGTHYGVSVVGIGRDKLGKIFYRALTQYLTPTSNFSQLRAAAVQSATDLYGSTSQEVASVKQAFDAVGVK"}}, "key": {"[1]": {"target": "T1, NPL (micellar nanoparticles of PPAL, DEX-containing PPA with L-MMP peptide) (not fully specified)", "T1 chain": "GPLGLAGGERDG"}, "[2]": {"target": "T2, NPD (micellar nanoparticles of PPAD, DEX-containing PPA with D-MMP peptide) (not fully specified)", "T2 chain": "GPLGLAGGERDG"}, "[3]": {"target": "T3, NPR (micellar nanoparticles of PPAR, DEX-containing PPA with random peptide) (not fully specified)", "T3 chain": "GGSGSGSGWGERDGS"}}, "data": [{"protein": "B1", "values": [{"measurement": "nanoparticle cleavage experiment (TEM after thermolysin treatment, 1 µM thermolysin : 100 µM polymer, 24 hours at 37° C.)", "setting": "[1]", "result": "underwent cleavage induced aggregation"}, {"measurement": "nanoparticle cleavage experiment (TEM after thermolysin treatment, 1 µM thermolysin : 100 µM polymer, 24 hours at 37° C.)", "setting": "[2]", "result": "maintained their nanoparticle morphology"}, {"measurement": "nanoparticle cleavage experiment (TEM after thermolysin treatment, 1 µM thermolysin : 100 µM polymer, 24 hours at 37° C.)", "setting": "[3]", "result": "maintained their nanoparticle morphology"}]}]}
